{
  "source": "patent US20080050396A1",
  "about": "(SURVAC, published 2008)",
  "binders": {"B1": {"name": "Bcl224 (peptide)", "peptide": "ALVGACITL", "notes": "The end of the range is worked out from the printed start and the peptide length"}, "B2": {"name": "Bcl85 (peptide)", "peptide": "ALSPVPPVV", "notes": "as for B1"}, "B3": {"name": "bcl208 (peptide)", "peptide": "PLFDFSWLSL", "notes": "as for B1"}, "B4": {"name": "bcl180 (peptide)", "peptide": "YLNRHLHTWI", "notes": "as for B1"}, "B5": {"name": "bcl172 (peptide)", "peptide": "NIALWMTEYL", "notes": "as for B1"}, "B6": {"name": "bcl220 (peptide)", "peptide": "LLSLALVGA", "notes": "as for B1"}, "B7": {"name": "bcl214 (peptide)", "peptide": "WLSLKTLLSL", "notes": "as for B1"}, "B8": {"name": "bcl222 (peptide)", "peptide": "SLALVGACI", "notes": "as for B1"}, "B9": {"name": "bcl124 (peptide)", "peptide": "FTARGRFATV", "notes": "as for B1"}, "B10": {"name": "bcl218 (peptide)", "peptide": "KTLLSLALV", "notes": "as for B1"}, "B11": {"name": "bcl80 (peptide)", "peptide": "AAAGPALSPV", "notes": "as for B1"}},
  "data": [
    {"target": "HLA-A2 (human)", "assay": "assembly assay: peptide stabilisation of HLA-A2 from T2 lysate, W6/32 immunoprecipitation", "units": {"C50": "µM"}, "values": [
      {"binder": "B1", "C50": 0.7},
      {"binder": "B2", "C50": 1},
      {"binder": "B3", "C50": 7},
      {"binder": "B4", "C50": 15},
      {"binder": "B5", "C50": 2},
      {"binder": "B6", "C50": 1},
      {"binder": "B7", "C50": 3},
      {"binder": "B8", "C50": 1},
      {"binder": "B9", "C50": 1},
      {"binder": "B10", "C50": 2},
      {"binder": "B11", "C50": 36}
    ]}
  ]
}
